Source: IntAct's records for PubMed 23434407

Legend:
cab39_human CAB39 [1] = target: cab39_human CAB39 (UniProt Q9Y376)
cab39_human CAB39 [2] = target: cab39_human CAB39 (UniProt Q9Y376); remark: listed apart in the source
cab39_human CAB39 [3] = target: cab39_human CAB39 (UniProt Q9Y376); remark: listed apart in the source
cab39_human CAB39 [4] = target: cab39_human CAB39 (UniProt Q9Y376); remark: listed apart in the source

Chain of cab39_human CAB39 (Q9Y376 whole entry): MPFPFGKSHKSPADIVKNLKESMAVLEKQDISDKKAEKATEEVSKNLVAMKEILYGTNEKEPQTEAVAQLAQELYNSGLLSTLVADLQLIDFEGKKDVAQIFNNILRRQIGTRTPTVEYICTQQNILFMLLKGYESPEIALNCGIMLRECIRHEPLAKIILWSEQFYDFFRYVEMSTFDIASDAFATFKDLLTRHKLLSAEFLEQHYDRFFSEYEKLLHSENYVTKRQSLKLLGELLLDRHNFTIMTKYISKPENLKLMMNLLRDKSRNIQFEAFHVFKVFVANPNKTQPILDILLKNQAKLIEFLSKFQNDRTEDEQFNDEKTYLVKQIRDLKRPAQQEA
Chain of Serine/threonine-protein kinase 26 (Homo sapiens), Q9P289-1 Y134A (Q9P289 whole entry Y134A): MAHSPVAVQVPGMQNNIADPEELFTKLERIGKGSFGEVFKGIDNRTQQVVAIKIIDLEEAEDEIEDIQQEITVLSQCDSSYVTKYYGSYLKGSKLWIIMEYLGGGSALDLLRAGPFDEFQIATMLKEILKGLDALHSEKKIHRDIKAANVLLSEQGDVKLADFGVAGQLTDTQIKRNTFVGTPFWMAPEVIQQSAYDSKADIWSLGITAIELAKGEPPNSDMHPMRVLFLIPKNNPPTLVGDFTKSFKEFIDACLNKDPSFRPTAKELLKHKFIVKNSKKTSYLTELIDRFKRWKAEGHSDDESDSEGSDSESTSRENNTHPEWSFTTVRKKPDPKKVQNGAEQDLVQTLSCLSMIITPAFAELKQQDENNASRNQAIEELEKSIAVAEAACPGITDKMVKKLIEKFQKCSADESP
Chain of Serine/threonine-protein kinase 26 (Homo sapiens), Q9P289-1 W324E (Q9P289 whole entry W324E): as the sequence (Q9P289 whole entry Y134A) above, with A134Y, W324E counted along it
Chain of Serine/threonine-protein kinase 26 (Homo sapiens), Q9P289-1 L90E;L95E (Q9P289 whole entry L90E/L95E): as the sequence (Q9P289 whole entry Y134A) above, with L90E, L95E, A134Y counted along it
Chain of Serine/threonine-protein kinase 26 (Homo sapiens), Q9P289-1 L95E (Q9P289 whole entry L95E): as the sequence (Q9P289 whole entry Y134A) above, with L95E, A134Y counted along it
Chain of Serine/threonine-protein kinase 26 (Homo sapiens), Q9P289-1 L228E (Q9P289 whole entry L228E): as the sequence (Q9P289 whole entry Y134A) above, with A134Y, L228E counted along it
Chain of Serine/threonine-protein kinase 26 (Homo sapiens), Q9P289-1 E58A (Q9P289 whole entry E58A): as the sequence (Q9P289 whole entry Y134A) above, with E58A, A134Y counted along it
Chain of Serine/threonine-protein kinase 26 (Homo sapiens), Q9P289-1 D242A;K276A (Q9P289 whole entry D242A/K276A): as the sequence (Q9P289 whole entry Y134A) above, with A134Y, D242A, K276A counted along it
Chain of Serine/threonine-protein kinase 26 (Homo sapiens), Q9P289-1 D162A (Q9P289 whole entry D162A): as the sequence (Q9P289 whole entry Y134A) above, with A134Y, D162A counted along it
Chain of Serine/threonine-protein kinase 26 (Homo sapiens), Q9P289-1 M225E (Q9P289 whole entry M225E): as the sequence (Q9P289 whole entry Y134A) above, with A134Y, M225E counted along it
Chain of Serine/threonine-protein kinase 26 (Homo sapiens), Q9P289-1 E138A (Q9P289 whole entry E138A): as the sequence (Q9P289 whole entry Y134A) above, with A134Y, E138A counted along it
Chain of Serine/threonine-protein kinase 26 (Homo sapiens), Q9P289-1 F229A (Q9P289 whole entry F229A): as the sequence (Q9P289 whole entry Y134A) above, with A134Y, F229A counted along it

Row | Substance | effect of a mutation on the interaction (cab39_human CAB39 [1]) | effect of a mutation on the interaction (cab39_human CAB39 [2]) | effect of a mutation on the interaction (cab39_human CAB39 [3]) | other results
1 | Serine/threonine-protein kinase 26 (Homo sapiens), Q9P289-1 F229A | decreasing interaction strength |  |  | 
2 | Serine/threonine-protein kinase 26 (Homo sapiens), Q9P289-1 M225E | decreasing interaction strength |  |  | 
3 | Serine/threonine-protein kinase 26 (Homo sapiens), Q9P289-1 E138A |  | decreasing interaction strength |  | 
4 | Serine/threonine-protein kinase 26 (Homo sapiens), Q9P289-1 W324E |  | disrupting interaction strength | decreasing interaction strength | 
5 | Serine/threonine-protein kinase 26 (Homo sapiens), Q9P289-1 L228E | decreasing interaction strength |  |  | 
6 | Serine/threonine-protein kinase 26 (Homo sapiens), Q9P289-1 L90E;L95E |  | disrupting interaction strength | decreasing interaction strength | 
7 | Serine/threonine-protein kinase 26 (Homo sapiens), Q9P289-1 Y134A |  | disrupting interaction strength | decreasing interaction strength | 
8 | Serine/threonine-protein kinase 26 (Homo sapiens), Q9P289-1 D162A |  |  |  | effect of a mutation on the interaction (cab39_human CAB39 [4]): decreasing interaction strength
9 | Serine/threonine-protein kinase 26 (Homo sapiens), Q9P289-1 D242A;K276A | decreasing interaction strength |  |  | 
10 | Serine/threonine-protein kinase 26 (Homo sapiens), Q9P289-1 E58A |  |  | decreasing interaction strength | 
11 | Serine/threonine-protein kinase 26 (Homo sapiens), Q9P289-1 L95E |  | disrupting interaction strength | decreasing interaction strength | 
